Source: the RNAGym collection of RNA variant scans (doi:10.1021/acssynbio.7b00057)

B1: Pistol ribozyme (parent)
chain: GGGUCGUUGUUCCAUAAUCGCGUGGAUAUGGCACGCAAGUUUCUACCGGGCACCGUAAAUGUCCGACUGGAGCCGUUCGGGCGGCUAUAAACAGACCUCAGGCCCGAAGCGUGGCGGCACCUGCCGCCGGUGGUAAAAAAGAUCGGAAGAGCACACGUCU

Variants of: B1
Experiment: aptazyme ON/OFF ratio, guanine; higher = stronger switching; co-transcriptional cleavage with and without guanine

Aptazyme ON/OFF ratio, 1.26:
U7A U8G G9A U10A U11G C12G
U7A U8G G9A U10C U11G C12U
U7A U8G G9A U10A U11C C12U C13U

Aptazyme ON/OFF ratio, 1.5:
U7A U8G G9A U10G U11G C12A C13U
U7A U8G G9A U10G C12G C13A
U7A U8G G9C U10A U11A C12A
U7A U8G G9C U10A U11A C12A C13A

Aptazyme ON/OFF ratio, 1.41:
U7A U8G G9A C12A C13A
U7A U8G G9A U10G U11A C12A C13G

Aptazyme ON/OFF ratio, 1.14:
U7A U8G G9A U10G U11C C12U C13U
U7A U8G G9A U10A U11G C12U
U7A U8G G9A U10C C12A C13G
U7A U8G G9A U11C C12A C13A

Aptazyme ON/OFF ratio, 1.24:
U7A U8G G9A U10G U11G C12G
U7A U8G G9A U10C U11A C12A

Aptazyme ON/OFF ratio, 1.64:
U7A U8G G9A U11G

Aptazyme ON/OFF ratio, 1.15:
U7A U8G G9A U10G U11A C12G C13A
U7A U8G G9A U10A U11C C12U C13A
U7A U8G G9C U10A C13G

Aptazyme ON/OFF ratio, 1.38:
U7A U8G G9A U10A U11G C12G C13A
U7A U8G G9C U10A U11A C12A C13U
U7A U8G G9A U11C C12A C13U
U7A U8G G9A U10C C12G C13G

Aptazyme ON/OFF ratio, 1.25:
U7A U8G C12A C13G
U7A U8G G9A U10C C13U
U7A U8G G9A U11A C12G C13U

Aptazyme ON/OFF ratio, 1.2:
U7A U8G G9A U11C C13U
U7A U8G G9A U10C U11A C12U
U7A U8G C13U

Aptazyme ON/OFF ratio, 1.21:
U7A U8G G9A U10A U11C C12G C13A
U7A U8G G9A U11A C12A C13G

Aptazyme ON/OFF ratio, 1.7:
U7A U8G G9A U10G U11A C12U C13A
U7A U8G G9A U11A

Aptazyme ON/OFF ratio, 1.61:
U7A U8G C12U

Aptazyme ON/OFF ratio, 1.12:
U7A U8G G9A U10C C12A C13U
U7A U8G G9A U11C C13A
U7A U8G G9A U10C U11G C12A
U7A U8C U11G C12A C13G

Aptazyme ON/OFF ratio, 1.27:
U7A U8G C12A C13A
U7A U8G G9A U10A C12A C13A
U7A U8G G9A U10G U11A C12U C13U
U7A U8G G9A U10C C12U C13U
U7A U8G C12G

Aptazyme ON/OFF ratio, 1.28:
U7A U8G G9A U11A C12U C13G
U7A U8G G9A U10C U11G C12A C13U
U7A U8G G9A C12U C13A

Aptazyme ON/OFF ratio, 1.65:
U7A U8G G9A U10G U11G C12A C13A

Aptazyme ON/OFF ratio, 1.33:
U7A U8G G9A U10G C12G C13U
U7A U8G G9A U10A U11C C12G C13U
U7A U8G G9A U10C U11G C12G
U7A U8G G9A U10A U11C C12A C13G
U7A U8G G9A U11C
U7A U8G G9A U10G U11G C12U C13A
U7A U8G G9A U11A C12G C13G

Aptazyme ON/OFF ratio, 1.23:
U7A U8G G9A U10G U11C C12G C13G
U7A U8G G9A C12U C13G

Aptazyme ON/OFF ratio, 1.17:
U7A U8G G9A U10A U11A C13U
U7A U8G G9A U10A U11A C13G
U7A U8G G9A U10G C12G C13G
U7A U8G G9A U10C C12U C13A
U7A U8G G9A U10A U11C C12U C13G
U7A U8G G9A U10C C12G C13U

Aptazyme ON/OFF ratio, 1.37:
U7A U8G G9A U10A C12A C13U
U7A U8G G9A U11A C12U C13A
U7A U8G G9A U10A C12U
U7A U8G G9A U10A U11G C12A C13G

Aptazyme ON/OFF ratio, 1.44:
U7A U8G G9C U10A U11A C12U

Aptazyme ON/OFF ratio, 1.1:
U7A U8C U11G C12U C13U
U7A U8G C13G
U7A U8G G9A U10A U11G C12A C13A
U7A U8G G9A U10C U11G C12G C13U
U7A U8G G9A U10C C13G
U7A U8G G9A U10C U11A C12U C13U

Aptazyme ON/OFF ratio, 1.07:
U7A U8G G9A U10C U11C C12G
U7A U8G G9A U11G C12A C13U
U7A U8G G9A U10C U11C C13A
U7A U8C U11G C12A C13A

Aptazyme ON/OFF ratio, 1.42:
U7A U8G C13A

Aptazyme ON/OFF ratio, 1.18:
U7A U8G G9A U10C U11G C12A C13A
U7A U8G G9C C12G C13G

Aptazyme ON/OFF ratio, 1.04:
U7A U8G G9A C12U C13U
U7A U8G G9A U10A U11C C13G
U7A U8G G9A U10A U11C C13U
U7A U8G G9A U10C U11C C12G C13U

Aptazyme ON/OFF ratio, 1.11:
U7A U8G G9A U10G U11A C13A
U7A U8G G9A U10G U11A C12G C13G
U7A U8G G9A U10G U11A C12A C13U
U7A U8G G9A U10C U11C C12G C13A
U7A U8G G9A U10C U11A C12U C13A

Aptazyme ON/OFF ratio, 1.46:
U7A U8G G9A U10A U11G C12G C13G
U7A U8G G9A U10G U11G C12A
U7A U8G G9C C12A C13A
U7A U8G G9A U11C C12A

Aptazyme ON/OFF ratio, 1.48:
U7A U8G G9A U10A U11G C12G C13U

Aptazyme ON/OFF ratio, 1.8:
U7A U8G G9A U10A U11G
U7A U8G G9A U10A U11A

Aptazyme ON/OFF ratio, 1.39:
U7A U8G G9A U11G C12A C13G
U7A U8G G9A U10G C12A C13A
U7A U8G G9A U11C C12U
U7A U8G G9A U11A C12A C13A
U7A U8G G9A U11G C13A

Aptazyme ON/OFF ratio, 1.79:
U7A U8G G9A C12G

Aptazyme ON/OFF ratio, 1.32:
U7A U8G G9A U11A C12U C13U
U7A U8G G9A U10G U11C C12U C13A
U7A U8G G9A U10G U11G C12U
U7A U8G G9A U10A U11C C12A C13A

Aptazyme ON/OFF ratio, 1.4:
U7A U8G G9A U10G U11C C12G C13A
U7A U8G G9A U10A U11G C12A C13U
U7A U8G G9A U11G C13U

Aptazyme ON/OFF ratio, 1.19:
U7A U8G G9A U10A U11A C13A
U7A U8G G9A U10C U11G C12A C13G
U7A U8G G9A C12A C13G
U7A U8G G9A U10G U11A C12A C13A
U7A U8G G9C U10A C13A
U7A U8G G9A U11A C12G C13A
U7A U8G G9A U10C C12G C13A

Aptazyme ON/OFF ratio, 1.53:
U7A U8G G9A U10A C12G

Aptazyme ON/OFF ratio, 1.35:
U7A U8G G9A U10G U11A C12U C13G
U7A U8G G9C U10A U11A C12A C13G
U7A U8G G9A C12A C13U

Aptazyme ON/OFF ratio, 1.36:
U7A U8G G9C U10A U11A C12G
U7A U8G G9C C12G C13A

Aptazyme ON/OFF ratio, 1.08:
U7A U8C U11G C12U C13A
U7A U8G G9A U10C U11C C12U
U7A U8G G9A U10A U11G C12A
U7A U8G G9A U10A U11C C12G C13G

Aptazyme ON/OFF ratio, 1.29:
U7A U8G G9C C12A C13U

Aptazyme ON/OFF ratio, 1.16:
U7A U8G G9A U10G U11A C13G
U7A U8G G9C C12A C13G
U7A U8G G9A U11G C12A C13A
U7A U8G G9A U10A U11C C12A C13U
U7A U8C U11G C12A C13U
U7A U8G G9A U11A C12A C13U
U7A U8G G9A U11G C13G
U7A U8G G9A U10C U11G C12G C13G

Aptazyme ON/OFF ratio, 1.56:
U7A U8G G9A U11C C12G

Aptazyme ON/OFF ratio, 1.31:
U7A U8G C12A C13U
U7A U8G G9A U10G C12A C13U

Aptazyme ON/OFF ratio, 1.3:
U7A U8G G9A U10A C12A
U7A U8G G9A U11C C12A C13G
U7A U8G G9C U10A C13U

Aptazyme ON/OFF ratio, 1.13:
U7A U8G G9A U10C U11C C12A
U7A U8G G9A U10C U11A C12G
U7A U8G G9A U10G C12A C13G
U7A U8G G9A U10C C12U C13G

Aptazyme ON/OFF ratio, 1.22:
U7A U8G G9A U10G U11C C12G C13U
U7A U8G G9A U10G U11A C12G C13U
U7A U8G G9A U10G U11G C12U C13U
U7A U8G G9A U10C U11G C12G C13A
U7A U8G C12A

Aptazyme ON/OFF ratio, 1.03:
U7A U8G G9A U10G U11A C13U
U7A U8G G9A U10A U11C
U7A U8G G9A U10C U11C C13U
U7A U8G G9A U10C U11C C13G
U7A U8G G9A U10C C13A

Aptazyme ON/OFF ratio, 1.05:
U7A U8G G9A U10C C12A C13A
U7A U8G G9A U10A U11C C13A

Aptazyme ON/OFF ratio, 1.06:
U7A U8G G9A U10A C12A C13G
U7A U8C U11G C12U C13G
U7A U8G G9A U10C U11A C12U C13G

Aptazyme ON/OFF ratio, 1:
U7A U8G G9A U10G U11G C12U C13G

Aptazyme ON/OFF ratio, 1.63:
U7A U8G G9A C12U

Aptazyme ON/OFF ratio, 1.09:
U7A U8G G9A U10G U11C C12U C13G
U7A U8G G9A U11C C13G
U7A U8G G9A U10C U11C C12G C13G

Aptazyme ON/OFF ratio, 1.69:
U7A U8G G9A C12A

Aptazyme ON/OFF ratio, 1.34:
U7A U8G G9C C12G C13U
